Values of other authors in article PMC3505014.

Experiments:
[1] = target: NRXN1β ECD (UniProt P58400); assay: surface plasmon resonance
[2] = target: Cbln1 (UniProt P23435); assay: surface plasmon resonance

Chain of UniProt P58400 (P58400 51-396): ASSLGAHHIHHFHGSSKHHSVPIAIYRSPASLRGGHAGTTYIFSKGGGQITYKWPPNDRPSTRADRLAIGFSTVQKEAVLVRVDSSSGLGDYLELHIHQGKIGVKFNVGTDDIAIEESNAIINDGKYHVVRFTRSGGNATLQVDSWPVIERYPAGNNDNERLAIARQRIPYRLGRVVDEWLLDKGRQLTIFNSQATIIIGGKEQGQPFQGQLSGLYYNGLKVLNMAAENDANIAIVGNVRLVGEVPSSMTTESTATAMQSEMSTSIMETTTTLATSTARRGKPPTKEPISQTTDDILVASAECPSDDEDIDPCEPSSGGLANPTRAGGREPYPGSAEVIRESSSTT

| Kd [1] [nM] | Kd [2] [nM] | Substance |
| --- | --- | --- |
| 0.17 | – | Cbln1 (from UniProt P23435) |
| – | 16.5 | GluRδ2 (from UniProt O43424) |
